Measured values from US6348573B1, “Compositions and methods for identifying apoptosis signaling pathway inhibitors and activators” (The Regents of the University of Michigan, priority 1998, dated 2002).
Like-named read-outs stand apart in the source and are kept apart here. Peptide text beside a SMILES is read from it. * marks the point of attachment. Cbz = O=C(OCc1ccccc1)*; CH2F = FC*

How the values were obtained:
293T cells [1] = assay: Apoptosis assay, CIDE transfection; format: cell-based, human
Method: Apoptosis Assays, fluorescence staining of nuclear DNA and DNA fragmentation assay: 5×10^5 293T cells were co-transfected with 0.2 μg of pcDNA3-β-gal plus each expression plasmid in triplicate by the calcium phosphate method as reported [N. Inohara et al, “CLARP, a death effector domain-containing protein interacts with caspase-8 and regulates apoptosis,” Proc. Natl. Acad. Sci. USA 94:10717-10722 (1997a)].
MCF7 were cotransfected with vector control or CIDE-A and β-galactosidase-expressing reporter construct by Lipofectamine (Gibco BRL) according to the manufacturer's instructions. In some experiments, 20 μM zVAD-fmk (benzyloxycarbonyl-Val-Ala-Asp-(OMe)-fluoromethylketone), zFA-fmk (benzyloxycarbonyl-Phe-Ala-(OMc)-fluoromethylketone) and zDEVD-fmk (benzyloxycarbonyl-Asp-Glu-Val-Asp-(OMe)-fluoromethylketone) were added into medium at 8 hr after transfection. zFA-fmk, zVAD-fmk and zDEVD-fmk were obtained from Enzyme Systems. At 24 hours after transfection, cells were fixed, stained for β-galactosidase as described [N. Inohara et al., “CLARP, a death effector domain-containing protein interacts with caspase-8 and regulates apoptosis,” Proc. Natl. Acad. Sci. USA 94:10717-10722 (1997a)] and assayed for morphological features of apoptosis. At least 300 hundred blue-staining cells were counted. Statistical significance was determined by one-way ANOVA followed by Student-Neuman-Keuls post-doc comparisons.
Nuclear staining with acridine-orange was performed as described [N. Inohara et al., “harakiri, a novel regulator of cell death, encodes a protein that activates apoptosis and interacts selectively with survival-promoting proteins Bcl-2 and Bcl-XL.,” EMBO J. 16:1686-1694 (1997b)]. Genomic DNA was extracted and analyzed for DNA fragmentation as described [X. Liu et al., “Apaf-1, a human protein homologous to C. elegans CED-4, participates in cytochrome c-dependent activation of caspase-3,” Cell 90:405-413 (1997)].

293T cells [2] = assay: Apoptosis assay, RICK co-transfection; format: cell-based, human; conditions: for caspase-8-induced apoptosis potentiated by RICK: 293T cells, zVAD-fmk 20 μM added at 8 hrs after transfection, p35 by expression plasmid
Method: The total amount of transfected plasmid DNA was adjusted with pcDNA3 plasmid to be the same within individual experiments. After transfection, 293T cells were harvested at different times and lysed with 0.2% NP-40 isotonic lysis buffer [N. Inohara et al., Proc. Natl. Acad. Sci. U.S.A. 94:10717-10722 (1997)]. The B lymphocyte-derived BJAB cell line was stably trasnfected by electroporation with pcDNA3 or pcDNA3-Flag-RICK (K38M). After selection with […] (1 μg/ml), bulk cell lines were tested for RICK protein expression with anti-Flag antibody by flow cytometric analysis. For immunoprecipitation, 1 mg of soluble protein was incubated with 10 μg/ml of polyclonal anti-Flag, anti-myc or control antibody overnight at 4° C. and tagged proteins were immunoprecipitated with Protein A-Sepharose 4B (Zymed Laboratories Inc.). Immunoprecipitated proteins or total lysates were subjected to 12% SDS-polyacrylamide electrophoresis and immunoblotted with monoclonal antibodies (mAb) to HA (Boeringer Mannheim) or Flag (Kodak).
Apoptosis Assays: 5×10^5 293T cells were co-transfected with 0.2 μg of pcDNA3-β-gal plus each expression plasmid in triplicate by the calcium phosphate method as reported [N. Inohara et al., Proc. Natl. Acad. Sci. U.S.A. 94:10717-10722 (1997)]. In some experiments, 20 μM of the caspase inhibitor zVAD-fmk (Enzyme Systems Products) or 12.5 μl of medium from […] cells producing Fas ligand (Immunex Corporation, Seattle, Wash.) was added at 8 hrs after transfection. At 18 or 24 hours after transfection, cells were fixed, stained for β-galactosidase as described [N. Inohara et al., Proc. Natl Acad. Sci. U.S.A. 94:10717-10722 (1997)] and assayed for morphological features of apoptosis. At least 300 hundred blue-staining cells were counted. BJAB apoptosis induced by anti-Apol mAb was determined by flow cytometric analysis of nuclei stained with propidium iodide as described [R. Merino et al., J. Immunol. 155:3830-3838 (1995)]. Statistical significance was determined by one-way ANOVA followed by Student-Neuman-Keuls post-doc comparisons.

293T cells [3] = assay: β-galactosidase apoptosis assay, ARC co-transfection; format: cell-based, human
Method: Briefly, 2 μg of pcDNA3 or pcDNA3-ARC-Flag or -HA was co-transfected with 3 μg of pcDNA3 or caspase expression plasmids. Total amount of transfected plasmid DNA was always 5 μg. 293T cells were harvested after 22 hr and lysed with 0.2% NP-40 isotonic lysis buffer [Z. N. Oltvai et al., Cell 74:609-619 (1993)]. For immunoprecipitation, […] of soluble protein was incubated with 10 μg/ml of polyclonal anti-Flag, monoclonal anti-AU1 or polyclonal anti-HA antibody for 2 hr at 4° C. and tagged proteins were immunoprecipitated with Protein A-Sepharose 4B (Zymed Laboratories Inc., San Francisco, Calif.). Immunoprecipitates were subjected to 12% SDS-polyacrylamide electrophoresis and immunoblotted with anti-Flag, anti-AU1 or anti-HA antibodies. β-galactosidase apoptosis assay and Caspase-8 enzymatic assay: 5×10^5 293T cells were transfected with 0.3 μg of pcDNA3-β-gal plus each expression plasmid in triplicate. Cells were fixed 16 hrs after transfection, stained for β-galactosidase and assayed for morphological features of apoptosis [M. Muira et al., Cell 75:653-660 (1993)]. Statistical significance was determined by one-way ANOVA followed by Student-Neuman-Keuls post-doc comparisons. For caspase-8 enzymatic assay, 1.5×10^6 human 293T cells were co-transfected with pcDNA3, pcDNA3-ARC-Flag, pcDNA3-caspase-8 and pcDNA3-caspase-8-mt by a calcium phosphate method. Total amount of transfected plasmid DNA was always 2.5 μg. 293T cells were harvested 18hr after transfection and lysed with 0.2% NP-40 isotonic lysis buffer. Tagged proteins were immunoprecipitated and caspase activity was measured as described [N. Inohara et al., Proc. Natl. Acad. Sci. USA 94:10717-10722 (1997)].

[4] = target: T1, Flag-tagged RICK (RIP-like interacting CLARP kinase), pcDNA3-Flag-RICK (human, UniProt O43353 11-540, limits assumed); assay: anti-Flag immunoprecipitation from co-transfected 293T cells, anti-HA immunoblot
T1 construct: Entire open reading frame of RICK, expressed in 293T cells; also called CIPERK; Flag-CIPERK; not shown: N-terminal Flag tag
T1 sequence (O43353 other isoform, or with tags, fused parts or gaps limits assumed): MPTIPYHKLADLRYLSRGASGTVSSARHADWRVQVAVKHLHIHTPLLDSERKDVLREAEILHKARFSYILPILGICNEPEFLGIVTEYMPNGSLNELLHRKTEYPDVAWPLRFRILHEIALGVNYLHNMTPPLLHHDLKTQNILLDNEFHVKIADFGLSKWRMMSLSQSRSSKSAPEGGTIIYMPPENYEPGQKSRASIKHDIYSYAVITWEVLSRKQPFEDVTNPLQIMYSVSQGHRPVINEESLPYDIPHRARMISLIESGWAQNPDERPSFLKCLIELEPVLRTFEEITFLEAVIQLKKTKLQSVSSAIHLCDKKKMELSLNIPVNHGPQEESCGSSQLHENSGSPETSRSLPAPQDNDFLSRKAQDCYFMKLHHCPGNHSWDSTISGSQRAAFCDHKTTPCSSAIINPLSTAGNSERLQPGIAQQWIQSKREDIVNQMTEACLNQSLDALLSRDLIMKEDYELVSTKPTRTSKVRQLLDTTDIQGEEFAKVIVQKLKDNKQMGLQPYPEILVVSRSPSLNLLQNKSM

Molecule: COC(=O)CC[C@H](NC(=O)[C@H](CC(=O)OC)NC(=O)OCc1ccccc1)C(=O)N[C@H](C(=O)N[C@@H](CC(=O)OC)C(=O)CF)C(C)C [zDEVD-fmk, benzyloxycarbonyl-Asp-Glu-Val-Asp-(OMe)-fluoromethylketone, reference compound]
- killing activity of CIDE-A in presence of caspase inhibitors (293T cells [1]): unaffected

Molecule: COC(=O)CC(NC(=O)C(C)NC(=O)C(NC(=O)OCc1ccccc1)C(C)C)C(=O)CF (stereo not drawn) [zVAD-fmk, benzyloxycarbonyl-Val-Ala-Asp-(OMe)-fluoromethylketone, reference compound] (Cbz-Val-Ala-Asp(OMe)-CH2F; configuration not given here)
- caspase-8-induced apoptosis potentiated by RICK (293T cells [2]): inhibited
- apoptosis induced by caspase-8 (293T cells [1]; 293T cells, control experiment, same concentration (20 μM)): inhibited
- killing activity of CIDE-A in presence of caspase inhibitors (293T cells [1]; 293T cells, peptide inhibitors 20 μM added at 8 hr after transfection, CrmA by plasmid): unaffected

B1: truncated form of ARC: truncated form of ARC that expressed the CARD domain (amino acid 1-106) (protein, UniProt O60936 1-106, looked up, fragment)
chain: MGNAQERPSETIDRERKRLVETLQADSGLLLDALLARGVLTGPEYEALDALPDAERRVRRLLLLVQGKGEAACQELLRCAQRTAGAPDPAWDWQHVGPGYRDRSYD
- ability to suppress apoptosis induced by caspase-4, compared with full length ARC (293T cells [3]): no significant difference
- ability to suppress apoptosis induced by caspase-8, compared with full length ARC (293T cells [3]): no significant difference

B2: CIDE-A (108-200): CIDE-A mutant containing the C-terminal half (protein, UniProt O70302 108-200, looked up, fragment)
chain: WTPGSKYVPVCKQPKKSGIARVTFDLYRLNPKDFLGCLNVKATMYEMYSVSYDIRCTSFKAVLRNLLRFMSYAAQMTGQFLVYAGTYMLRVLG
- induction of apoptosis (killing) of 293T cells by expression (293T cells [1]; 293T cells): capable of inducing apoptosis
- killing activity compared with wild-type CIDE-A (293T cells [1]; 293T cells): greater

B3: deletion mutant missing the C-terminal 165 amino acids: RICK deletion mutant missing the C-terminal 165 amino acids that span the CARD domain (protein, UniProt O43353 1-365, looked up, fragment)
chain: MNGEAICSALPTIPYHKLADLRYLSRGASGTVSSARHADWRVQVAVKHLHIHTPLLDSERKDVLREAEILHKARFSYILPILGICNEPEFLGIVTEYMPNGSLNELLHRKTEYPDVAWPLRFRILHEIALGVNYLHNMTPPLLHHDLKTQNILLDNEFHVKIADFGLSKWRMMSLSQSRSSKSAPEGGTIIYMPPENYEPGQKSRASIKHDIYSYAVITWEVLSRKQPFEDVTNPLQIMYSVSQGHRPVINEESLPYDIPHRARMISLIESGWAQNPDERPSFLKCLIELEPVLRTFEEITFLEAVIQLKKTKLQSVSSAIHLCDKKKMELSLNIPVNHGPQEESCGSSQLHENSGSPETSRSLP
- apoptosis of 293T cells induced by Fas, Fas plus FasL or caspase-8 (293T cells [2]; co-expression with RICK deletion mutants): did not enhance apoptosis

B4: CIDE-A (1-107): CIDE-A mutant containing the N-terminal half with homology to DFF45 (protein, UniProt O70302 1-107, looked up, fragment)
chain: METARDYAGALIRPLTFMGLQTKKVLLTPLIHPARPFRVSNHDRSSRRGVMASSLQELISKTLDVLVITTGLVTLVLEEDGTVVDTEEFFQTLRDNTHFMILEKGQK
- induction of apoptosis (killing) of 293T cells by expression (293T cells [1]; 293T cells): did not
- inhibition of CIDE-A-induced apoptosis by DFF45 (293T cells [1]; 293T cells, co-expression): antagonized

B5: baculovirus p35: broad-based caspase inhibitor protein of baculovirus, expressed from plasmid (protein, UniProt P08160 1-299, looked up)
Early 35 kDa protein: MCVIFPVEIDVSQTIIRDCQVDKQTRELVYINKIMNTQLTKPVLMMFNISGPIRSVTRKNNNLRDRIKSKVDEQFDQLERDYSDQMDGFHDSIKYFKDEHYSVSCQNGSVLKSKFAKILKSHDYTDKKSIEAYEKYCLPKLVDERNDYYVAVCVLKPGFENGSNQVLSFEYNPIGNKVIVPFAHEINDTGLYEYDVVAYVDSVQFDGEQFEEFVQSLILPSSFKNSEKVLYYNEASKNKSMIYKALEFTTESSWGKSEKYNWKIFCNGFIYDKKSKVLYVKLHNVTSALNKNVILNTIK
- caspase-8-induced apoptosis potentiated by RICK (293T cells [2]): inhibited

B6: caspase-3, epitope-tagged (enzyme, UniProt P42574 1-277, looked up)
chain: MENTENSVDSKSIKNLEPKIIHGSESMDSGISLDNSYKMDYPEMGLCIIINNKNFHKSTGMTSRSGTDVDAANLRETFRNLKYEVRNKNDLTREEIVELMRDVSKEDHSKRSSFVCVLLSHGEEGIIFGTNGPVDLKKITNFFRGDRCRSLTGKPKLFIIQACRGTELDCGIETDSGVDDDMACHKIPVEADFLYAYSTAPGYYSWRNSKDGSWFIQSLCAMLKQYADKLEFMHILTRVNRKVATEFESFSFDATFHAKKQIPCIVSMLTKELYFYH
notes: also called pcDNA3-caspase-3-Flag; not shown: position and
- binding result [4]: no binding

B7: human caspase-2, epitope-tagged (enzyme, UniProt P42575 18-452, looked up)
chain: MAADRGRRILGVCGMHPHHQETLKKNRVVLAKQLLLSELLEHLLEKDIITLEMRELIQAKVGSFSQNVELLNLLPKRGPQAFDAFCEALRETKQGHLEDMLLTTLSGLQHVLPPLSCDYDLSLPFPVCESCPLYKKLRLSTDTVEHSLDNKDGPVCLQVKPCTPEFYQTHFQLAYRLQSRPRGLALVLSNVHFTGEKELEFRSGGDVDHSTLVTLFKLLGYDVHVLCDQTAQEMQEKLQNFAQLPAHRVTDSCIVALLSHGVEGAIYGVDGKLLQLQEVFQLFDNANCPSLQNKPKMFFIQACRGDETDRGVDQQDGKNHAGSPGCEESDAGKEKLPKMRLPTRSDMICGYACLKGTAAMRNTKRGSWYIEALAQVFSERACDMHVADMLVKVNALIKDREGYAPGTEFHRCKEMSEYCSTLCRHLYLFPGHPPT
notes: also called AU1-tagged caspase-2; not shown: lette
- binding result [4]: no binding
